Measured values published in patent publication US20060251726.

Assays:
[1] = system: T1, non-stearate Fus1 peptide
T1 sequence: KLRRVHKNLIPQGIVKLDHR

[2] = system: T2, stearate-Fus1 peptide (Stearic acid-KLRRVHKNLIPQGIVKLDHR)
T2 sequence: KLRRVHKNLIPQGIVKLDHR

truncated commercial (New England Bio-Labs) cAbl tyrosine kinase (45 kD) containing only the SH2 and SH1 domains
GST-Crk phosphorylation by the 45 kD Abl tyrosine kinase, 0-60 uM peptide [1]: Non-stearic acid modified Fus1 peptide did not inhibit Abl tyrosine kinase activity | phosphorylation of Gst-Crk by commercial Abl [1]: Non-stearate FUS1 peptide did not inhibit phosphorylation of Gst-Crk by commercial Abl | Abl tyrosine kinase assay using bacterially purified Abl kinase (GST-CRK phosphorylation) [2]: This peptide was strongly inhibitory in an Abl tyrosine kinase assay using bacterially purified Abl kinase | c-Abl tyrosine phosphorylation of GST-CRK (32P, SDS-PAGE, phosphoimager; 10-55 µM peptide) [2]: the peptide inhibits c-Abl tyrosine phosphorylation of GST-CRK
